Assay results from patent US20090208447A1 (MEDIGENE, published 2009).

These binders were tested against HLA-A*0201 loaded with the Carcinoembryonic antigen (CEA)-derived … peptide (biotinylated on the C-terminal biotinylation tag) (assay: SPR (Biacore), Example 4).

Kd [nM] | koff [s⁻¹] | Binder
≤ 1000 | ≤ 2 | SEQ ID NO 6 (receptor) MGHLPKPTLWAEPGSVITMGQPVTLRCQGGQETQEYRLYREKKTAPWITRIPQELVKKGQFPIPSITWEHAGRYRCYYGSDTAGRSESSDPLELVVTGAYIKPTLSAQPSPVVNSGGNVTLQCDSQVAFDGFILCKEGEDEHPQCLNSQPHARGSSRAIFSVGPVSPSRRWWYRCYAYDSNSPYEWSLPSDLLELLVL
≤ 1000 | ≤ 2 | SEQ ID NO 8 (receptor) MGHLPKPTLWAEPGSVITLMQPVTLRCQGGQETQEYRLYREKKTAPWITRIPQELVKKGQFPIPSITWEHAGRYRCYYGSDTAGRSESSDPLELVVTGAYIKPTLSAQPSPVVNSGGNVTLQCDSQVAFDGFILCKEGEDEHPQCLNSQPHARGSSRAIFSVGPVSPSRRWWYRCYAYDSNSPYEWSLPSDLLELLVL
≤ 1000 | ≤ 2 | SEQ ID NO 39 (receptor) MGHLPKPTLWAEPGSVITQGAPVTLRCQGGQETQEYRLYREKKTAPWITRIPQELVKKGQFPIPSITWEHAGRYRCYYGSDTAGRSESSDPLELVVTGVYIKPTLSAQPSPVVNSGGNVTLQCDSQVAFDGFILCKEGEDEHPQCLNSQPHARGSSRAIFSVGPVSPGRRWWYRCYAYDSNSPYEWSLPSDLLELLVL
≤ 1000 | ≤ 2 | SEQ ID NO 27 (receptor) MGHLPKPTLWAEPGSVITQGSPVTLRCQGGQETQEYRLYREKKTAPWITRIPQELVKKGQFPIPSITWEHAGRYRCYYGSDTSQWSASSDPLELVVTGVYIKPTLSAQPSPVVNSGGNVTLQCDSQVAFDGFILCKEGEDEHPQCLNSQPHARGSSRAIFSVGPVSPSRRWWYRCYAYDSNSPYEWSLPSDLLELLVL
≤ 1000 | ≤ 2 | SEQ ID NO 32 (receptor) MGHLPKPTLWAEPGSVITMDQPVTLRCQGGQETQEYRLYREKKTAPWITRIPQELVKKGQFPIPSITWEHAGRYRCYYGTQTAGRSESSDPLELVVTGVYIKPTLSAQPSPVVNSGGNVTLQCDSQVAFDGFILCKEGEDEHPQCLNSQPHARGSSRAIFSVGPVSPGRRWWYRCYAYDSNSPYEWSLPSDLLELLVL
≤ 1000 | ≤ 2 | SEQ ID NO 26 (receptor) MGHLPKPTLWAEPGSVITQGSPVTLRCQGGQETQEYRLYREKKTAPWITRIPQELVKKGQFPIPSITWEHAGRYRCMQYTLTAGRSESSDPLELVVTGVYIKPTLSAQPSPVVNSGGNVTLQCDSQVAFDGFILCKEGEDEHPQCLNSQPHARGSSRAIFSVGPVSPSRRWWYRCYAYDSNSPYEWSLPSDLLELLVL
≤ 1000 | ≤ 2 | SEQ ID NO 21 (receptor) MGHLPKPTLWAEPGSVITLFQPVTLRCQGGQETQEYRLYREKKTAPWITRIPQELVKKGQFPIPSITWEHAGRYRCYYGSDTAGRSESSDPLELVVTGAYIKPTLSAQPSPVVNSGGNVTLQCDSQVAFDGFILCKEGEDEHPQCLNSQPHARGSSRAIFSVGPVSPSRRWWYRCYAYDSNSPYEWSLPSDLLELLVL
≤ 1000 | ≤ 2 | SEQ ID NO 37 (receptor) MGHLPKPTLWAEPGSVITQGSPVTLRCQGGQETQEYRLYREKKTAPWITRIPQELVKKGQFPIPSITWEHAGRYRCYYGSDTAGRSESSDPLELVVTGIYKAPTLSAQPSPVVNSGGNVTLQCDSQVAFDGFILCKEGEDEHPQCLNSQPHARGSSRAIFSVGPVSPSRRWWYRCYAYDSNSPYEWSLPSDLLELLVL
≤ 1000 | ≤ 2 | SEQ ID NO 24 (receptor) MGHLPKPTLWAEPGSVITQGSPVTLRCQGGQETQEYRLYREKKTAPWITRIPQELVKKGQFPIPSITWEHAGRYRCYYGSQGGLRSESSDPLELVVTGVYIKPTLSAQPSPVVNSGGNVTLQCDSQVAFDGFILCKEGEDEHPQCLNSQPHARGSSRAIFSVGPVSPSRRWWYRCYAYDSNSPYEWSLPSDLLELLVL
≤ 1000 | ≤ 2 | SEQ ID NO 29 (receptor) MGHLPKPTLWAEPGSVITQGSPVTLRCQGGQETQEYRLYREKKTAPWITRIPQELVKKGQFPIPSITWEHAGRYRCYYGTQTAGRSESSDPLELVVTGAYIKPTLSAQPSPVVNSGGNVTLQCDSQVAFDGFILCKEGEDEHPQCLNSQPHARGSSRAIFSVGPVSPSRRWWYRCYAYDSNSPYEWSLPSDLLELLVL
≤ 1000 | ≤ 2 | SEQ ID NO 9 (receptor) MGHLPKPTLWAEPGSVITMQRPVTLRCQGGQETQEYRLYRERKTAPWITRIPQELVKKGQFPIPSITWEHAGRYRCYYGSDTAGRSESSDPLELVVTGAYIKPTLSAQPSPVVNSGGNVTLQCDSQVAFDGFILCKEGEDEHPQCLSSQPHARGSSRAIFSVGPVSPSRRWWYRCYAYDSNSPYEWSLPSDLLELLVL
≤ 1000 | ≤ 2 | SEQ ID NO 25 (receptor) MGHLPKPTLWAEPGSVITQGSPVTLRCQGGQETQEYRLYREKKTAPWITRIPQELVKKGQFPIPSITWEHAGRYRCYYGTQTAGRSESSDPLELVVTGVYIKPTLSAQPSPVVNSGGNVTLQCDSQVAFDGFILCKEGEDEHPQCLNSQPHARGSSRAIFSVGPVSPSRRWWYRCYAYDSNSPYEWSLPSDLLELLVL
≤ 1000 | ≤ 2 | SEQ ID NO 38 (receptor) MGHLPKPTLWAEPGSVITQGSPVTLRCQGGQETQEYRLYREKKTAPWITRIPQELVKKGQFPIPSITWEHAGRYRCYYGSDTAGRSESSDPLELVVTGIYQAPTLSAQPSPVVNSGGNVTLQCDSQVAFDGFILCKEGEDEHPQCLNSQPHARGSSRAIFSVGPVSPSRRWWYRCYAYDSNSPYEWSLPSDLLELLVL
≤ 1000 | ≤ 2 | SEQ ID NO 23 (receptor) MGHLPKPTLQAEPGSVITQGSPVTLRCQGGQETQEYRLYREKKTAPWITRIPQELVKKGQFPIPSITWEHAGRYRCVIQRGTAGRSESSDPLELVVTGVYIKPTLSAQPSPVVNSGGNVTLQCDSQVAFDGFILCKEGEDEHPQCLNSQPHARGSSRAIFSVGPVSPSRRWWYRCYAYDSNSPYEWSLPSDLLELLVL
≤ 1000 | ≤ 2 | SEQ ID NO 7 (receptor) MGHLPKPTLWAEPGSVITMDQPVTLRCQGGQETQEYRLYREKKTAPWITRIPQELVKKGQFPIPSITWEHAGRYRCYYGSDTAGRSESSDPLELVVTGVYIKPTLSAQPSPVVNSGGNVTLQCDSQVAFDGFILCKEGEDEHPQCLNSQPHARGSSRAIFSVGPVSPGRRWWYRCYAYDSNSPYEWSLPSDLLELLVL
≤ 1000 | ≤ 2 | SEQ ID NO 28 (receptor) MGHLPKPTLWAEPGSVITQGSPVTLRCQGGQETQEYRLYREKKTAPWITRIPQELVKKGQFPIPSITWEHAGRYRCYYGSQGGLRSESSDPLELVVTGAYIKPTLSAQPSPVVNSGGNVTLQCDSQVAFDGFILCKEGEDEHPQCLNSQPHARGSSRAIFSVGPVSPSRRWWYRCYAYDSNSPYEWSLPSDLLELLVL
≤ 1000 | ≤ 2 | SEQ ID NO 36 (receptor) MGHLPKPTLWAEPGSVITQGSPVTLRCQGGQETQEYRLYREKKTAPWITRIPQELVKKGQFPIPSITWEHAGRYRCYYGSDTAGRSESSDPLELVVTGIYLAPTLSAQPSPVVNSGGNVTLQCDSQVAFDGFILCKEGEDEHPQCLNSQPHARGSSRAIFSVGPVSPSRRWWYRCYAYDSNSPYEWSLPSDLLELLVL
≤ 1000 | ≤ 2 | SEQ ID NO 33 (receptor) MGHLPKPTLWAEPGSVITMDQPVTLRCQGGQETQEYRLYREKKTAPWITRIPQELVKKGQFPIPSITWEHAGRYRCVIQRGTAGRSESSDPLELVVTGVYIKPTLSAQPSPVVNSGGNVTLQCDSQVAFDGFILCKEGEDEHPQCLNSQPHARGSSRAIFSVGPVSPSRRWWYRCYAYDSNSPYEWSLPSDLLELLVL
≤ 1000 | ≤ 2 | SEQ ID NO 35 (receptor) MGHLPKPTLWAEPGSVITQGSPVTLRCQGGQETQEYRLYREKKTAPWITRIPQELVKKGQFPIPSITWEHAGRYRCYYGSDTAGRSESSDPLELVVTGIYRQPTLSAQPSPVVNSGGNVTLQCDSQVAFDGFILCKEGEDEHPQCLNSQPHARGSSRAIFSVGPVSPSRRWWYRCYAYDSNSPYEWSLPSDLLELLVL
≤ 1000 | ≤ 2 | SEQ ID NO 34 (receptor) MGHLPKPTLWAEPGSVITMDQPVTLRCQGGQETQEYRLYREKKTAPWITRIPQELVKKGQFPIPSITWEHAGRYRCMQYTLTAGRSESSDPLELVVTGVYIKPTLSAQPSPVVNSGGNVTLQCDSQVAFDGFILCKEGEDEHPQCLNSQPHARGSSRAIFSVGPVSPSRRWWYRCYAYDSNSPYEWSLPSDLLELLVL
≤ 1000 | ≤ 2 | SEQ ID NO 30 (receptor) MGHLPKPTLWAEPGSVITQGSPVTLRCQGGQETQEYRLYREKKTAPWITRIPQELVKKGQFPIPSITWEHAGRYRCMQYTLTAGRSESSDPLELVVTGAYIKPTLSAQPSPVVNSGGNVTLQCDSQVAFDGFILCKEGEDEHPQCLNSQPHARGSSRAIFSVGPVSPSRRWWYRCYAYDSNSPYEWSLPSDLLELLVL
≤ 1000 | ≤ 2 | SEQ ID NO 22 (receptor) MGHLPKPTLWAEPGSVITLSQPVTLRCQGGQETQEYRLYREKKTAPWITRIPQELVKKGQFPIPSITWEHAGRYRCYYGSDTAGRSESSDPLELVVTGVYIKPTLSAQPSPVVNSGGNVTLQCDSQVAFDGFILCKEGEDEHPQCLNSQPHARGSSRAIFSVGPVSPSRRWWYRCYAYDSNSPYEWSLPSDLLELLVL
≤ 1000 | ≤ 2 | SEQ ID NO 31 (receptor) MGHLPKPTLWAEPGSVITMDQPVTLRCQGGQETQEYRLYREKKTAPWITRIPQELVKKGQFPIPSITWEHAGRYRCYYGSQGGLRSESSDPLELVVTGVYIKPTLSAQPSPVVNSGGNVTLQCDSQVAFDGFILCKEGEDEHPQCLNSQPHARGSSRAIFSVGPVSPGRRWWYRCYAYDSNSPYEWSLPSDLLELLVL
